Results from the nanobody polyreactivity screen of Harvey et al. (2022).

assay: yeast display, Sf9 membrane polyspecificity reagent, FACS + sequencing; frameworks hold sequencing errors
How it was run: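 After 36–48 hours of galactose induction, yeast (Saccharomyces cerevisiae BJ5465) displaying a synthetic nanobody library were stained at 4 °C for 1 hour with 10% biotinylated, detergent-solubilized Sf9 membrane reagent. Streptavidin microbeads enriched the stained cells before FACS sorting into low and high (top ~1%) gates on anti-HA and streptavidin fluorescence. Each clone's polyreactivity label reflects its gate of origin.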

Sequence | polyreactivity (PSR sort gate)
QVQLVESGGGLVQAGGSLRLSCAASGSTFSRYAMGWYRQAPGKERELVAAISWGGNTYYADSVKGRFTISRDNAKNTVYLQMNSLKPEDTAVYYCNRYSKLYNTMDYWGQGTQVTVSS | high polyreactivity
QVQLVESGGGLVQAGGSLRLSCAASGSTFSRYAMGWYRQAPGKERELVAAISYSGDSTYYADSVKGRFTISRDYAKNTVYLQMNSLKPEDTAVYYCNVYSHYRGYYWGQGTQVTVSS | high polyreactivity
QVQLVESGGGLVQAGGSLRLSCAASGSTFSRYAMGWYRQAPGKERELVAAITASGGSTYYADSVKGRFTISRDNAKNTVYLQMNRLKPEDTAVYYCAASYQVRYDYWGQGTQVTVSS | high polyreactivity
QVQLVESGGGLVQAGGSLRLSCAASGSTFSRYAMGWYRQAPGKERELVAAITSSGGSSYYADSVKGRFTISRDNAKNTVYLQMNSLKPEDTAVYYCAASYQVRYDYWGQGTQVTVSS | high polyreactivity
QVQLVESGGGLVQAGGSLRLSCAASGSTFSRYTMGWYRQAPGKERELVAAISKSGGSTYYADSVKGRFTISRDNAKNTVYLQMNSLKPEDTAVYYCAALVRAGTSLDYDYWGQGTEVTVSS | high polyreactivity
QVQLVESGGGLVQAGGSLRLSCAASGSTFSSNAMGWYRQAPGKERELVAAINRRGGTYYADSVKGRFTISRDNAKNTVYLQMNSLKPEDTAVYYCAAASPYHEYDYWGQGTQVTVSS | low polyreactivity
QVQLVESGGGLVQAGGSLRLSCAASGSTFSSNGMGWYRPAPGKERELVAAITSGGSTNYADSVKGRFTISRDNAKNTVYLQMNSLKPEDTAVYYCNAERTAYGGGDYWGQGTQVTVSS | low polyreactivity
QVQLVESGGGLVQAGGSLRLSCAASGSTFSSNPMGWYRQAPGKERELVAAISVNGGSTNYADSVKGRFTISRDNAKNTVYLQMNSLKPVDTAVYYCAAEPAKVAFYRGDYWGQGTQVTVSS | low polyreactivity
QVQLVESGGGLVQAGGSLRLSCAASGSTFSSYAMGRYRQAPGKERELVAVITRGTSTNYADSVKGRFTISRDNAKNTVYLQMNSLKPEDTAVYYCNARRGSRRFGYWGQGTQVNVSS | high polyreactivity
QVQLVESGGGLVQAGGSLRLSCAASGSTFSSYAMGWYRQAPGKERELVAAISRRGGRTYYADSVKGRFTISRDNAKNTVYLQMNRLKPEDTAVYYCAADWGVRDEYYYWGQGTQVTVSS | high polyreactivity
QVQLVESGGGLVQAGGSLRLSCAASGSTFSSYAMGWYRQAPGKERELVAATYYADSVKGRFTISRDNAKNTVYLQMNSLKPEDTAVYYCNADNDYQGGKEYDYWGQGTQVTVSS | low polyreactivity
QVQLVESGGGLVQAGGSLRLSCAASGSTFSSYVMGWYRKAPVKERELVAAISSIGGSTYFADSVKGRFTISRDNAKNTVYLQMNSLKPEDTAVYFCAAEPPGSTYEGGYWGQGTQVTVSS | low polyreactivity
QVQLVESGGGLVQAGGSLRLSCAASGSTFSTNALGWYREAPGKELELVDDISSSSGRTYYADSVKGRFTISRDNAKNTVYLQMNSLKPEDTAVYYCAAANQGYRSGRKGVQRFDYWGQGTQVTVSS | high polyreactivity
QVQLVESGGGLVQAGGSLRLSCAASGSTFSTNAMGWFIQAPGKARELVAGISRSGGRTYYADSVKGRFTISRDNAKTTVYLQMNSLKPEETAVYYSNAVRRFASPSPHYYWGQGTQVTLSS | high polyreactivity
QVQLVESGGGLVQAGGSLRLSCAASGSTFSTNAMGWYRPAPAKEREFGAAITWSGDSTDYADSVKGRFTISRDNAKNTVYLHMNSLKPEDTAVYYCSAGPFLESYRGYSEMDYWGQGTQVTVSS | low polyreactivity
QVQLVESGGGLVQAGGSLRLSCAASGSTFSTNAMGWYRQAPGKERELVAAISRRGGNTYYADSVKGRFTISRDNAKNTVYLQMNSLKPEDTAGYYCAAKYYRFGDPDRYDYWGQGTQVTVSS | high polyreactivity

Sequence | polyreactivity (PSR sort gate)
QVQLVESGGGLVQAGGSLRLSCAASGSTFSTYAMGWYRQAPGKERELVAAIRSGGSTYYADSVKGRFTISRDNAKNTVYLQMNSLKPEDTAVYYCAAKPRNYSYRYYYWGQGTLVTVSS | high polyreactivity
QVQLVESGGGLVQAGGSLRLSCAASGSTFSTYAMGWYRQAPGKERELVAAITRRGGRTYYADSVKGRFTISRDNAKNTVYLQMNSLKPEDTAVYYCAKTSPVSDGYYWGQGTQVTVSS | high polyreactivity
QVQLVESGGGLVQAGGSLRLSCAASGSTFSVYAMGWYRQAPGKERELVATISWGGGITYYADSVKGRFTISRDNAKNTVYLQMNSLKPEDTAVYYCAKELYSWLPGYRCEGTMDYWGQGTQVTVSS | high polyreactivity
QVQLVESGGGLVQAGGSLRLSCAASGSTFSVYAMGWYRQAPGKERELVATISWGGGITYYADSVKGRFTISRDNAKNTVYLQMNSLKPEDTAVYYCHSSKYGYWGQGTQVTVSS | high polyreactivity
QVQLVESGGGLVQAGGSLRLSCAASGSTFSWYAMGWYRQAPGKERELVASISFSGGDTSYADSVKGRFTISRDNAKNTVYLQMNSLKPEDTEVYYCGKEYKYETDTIFDYWGQGTQVTVSS | low polyreactivity
QVQLVESGGGLVQAGGSLRLSCAASGSTFSWYTMGWYRQAPGKERELVAAISWSGGRTYYADSVKGRFTISRDNAKNTVYLQMNSLKPEDTAVYYCAAYDYWYSLGDYQFYYSGQGTQVTVSS | low polyreactivity
QVQLVESGGGLVQAGGSLRLSCAASGSTFSYAMGWYRQAPGKERELVAAITIGGRTSYADSVKGRFTISRDNAKNTVYLQMNSLKPEDTAVYYCAAEGYYPVYYYVYYGYDYWGQGTQVTVSS | low polyreactivity
QVQLVESGGGLVQAGGSLRLSCAASGSTFSYNAMGWYRQAPGKERELVAAIDRSVSTNYADSVKGRFTISRDNAKNTVYLQMNSLKTEDTAVYYCNARHPTDDIVIYDYWGQGTQVTVSS | low polyreactivity
QVQLVESGGGLVQAGGSLRLSCAASGSTFSYNAMGWYRQAPGKERELVAAISRRGGGTYYADSVKGRFTISRDKAKNTVSLHMNSLKPVDTAVYYCNADIWYKTYDYWGQGTQVTVSS | low polyreactivity
QVQLVESGGGLVQAGGSLRLSCAASGSTFSYNAMGWYRQAPGKERELVAAITSTGRTYYADSVKGRFTITRDNAKNTVYLQMISLKPEDTAGYYCNKVYYRFYSADFGYGWYLRYDYWGQGTQVTVSS | high polyreactivity
QVQLVESGGGLVQAGGSLRLSCAASGSTFSYNMGWYRQAPGKERELVAAISGSGGSTYADSVKGRFTISRDNAKNTVYLQMNSLKPEDTAVYYCATVRYWVHEYGYWGQGTQVTVSS | high polyreactivity
QVQLVESGGGLVQAGGSLRLSCAASGSTFSYYAMGWYRQAPGKERELVAAITRGGSTYYADSVKGRFTISRDNAKNTVYLQMNSLKPEDTAVYYCATRTWRWGYLHYDYWGQGTQVTVSS | low polyreactivity
QVQLVESGGGLVQAGGSLRLSCAASGSTFSYYAMGWYRQAPGKERELVASISSGGSTNYADSVKGRFTISRANAKNTVYLQMNSLKPEDSAVYYCKADSWTVNRRYYYYRYEYWGQGSQVTVSS | low polyreactivity
QVQLVESGGGLVQAGGSLRLSCAASGSTFSYYAMVWYRQAPGKERELVADISSGGSTNYADSVKGRFTISRDNAKNTVYLQMNSLKPEDTAVYYCNRRYSYYDGFDYWGQGTQVTVSS | low polyreactivity
QVQLVESGGGLVQAGGSLRLSCAASGSTFSYYTMGWSRQAPGKERELVAAISRGGSTNYADSVKGRFTISRDNAKNTVYLQMNSLKPEDTAVYYCAAEPGRTKRYKVRMDYWGQGTQVTVSS | high polyreactivity
QVQLVESGGGLVQAGGSLRLSCAASGSTFSYYTMGWYRQAPGKERELVADIDSGDDTYYADSVKGRFTISRDNAKNTVYLQMNSLKPEDTAVYYCATEFNRPHFTVRVRFKYYYWGQGTQVTVSS | low polyreactivity
